According to IntAct's records for PubMed 22101932:

B1: Coiled-coil quantitatively-enriched protein 1 (Schizosaccharomyces pombe (strain ATCC 38366 / 972)), Q10432 (parent)
chain: MSEINDFTNSIIINESDTKYEVYSEVNSSNRWIAKEDCPSPLEDVWLLKLAGHKRKLEEPLSCMRNEEPASKQREIEKFLRTDLDHSENDFLTQEVDEFPSTQQLFPIPLQNDTAFDSSEESITKSSKSSFSVLDIGLPMSALQRKMMHRLVQYFAFCIDHFCTGPSDSRIQEKIRLFIQSAHNIAKHPSLYDTEVRNPSAAESTNSHVSLDASNFSSYAENSSKFLFLQELFKNLSPSYSKTFFLFISNQFLANTLTQWLKSQNIDAELWAEEDAKTSQHPAIWICVSKKAPSASHFLQSCPDLSATIFYDIEAYMSVTSSLPSIQSLVLRLIHLGSIEHAIKCFQSSYNASFLVNIVGVVATLSSSSEENSEASNLSTLFEKSGNFEEILGSESHSSITEKTRDIAKNVATWLKNGENFSSWPLPPLMDLASLSVAEPRDSQPSVSQVNDTFVKSSDSTFPSSQSMQSPSKLHSLTSNATDLLSSSSLKKNFFSQQEADEVELSNNYDLQGAAVQYLQRRLRMVEDELHEAINSKNVQQSRSEELEQQISKLTDNLQEYRNTVRELKLDLEKSKKKNEDLSKLEVEKVEEIANLKKELTHLAKQQEFGFKYVQEFSNEDLQGKLIEANEKNYKLTQLLKTQKEDADFITNQYQNASTFAAEQSKEVAKLQAECKRLQAINSKVMEEVKVYNDSRVEALLAKVSSLEETLKILEQKSLPKFTPHNQSPRIIDSN
partner: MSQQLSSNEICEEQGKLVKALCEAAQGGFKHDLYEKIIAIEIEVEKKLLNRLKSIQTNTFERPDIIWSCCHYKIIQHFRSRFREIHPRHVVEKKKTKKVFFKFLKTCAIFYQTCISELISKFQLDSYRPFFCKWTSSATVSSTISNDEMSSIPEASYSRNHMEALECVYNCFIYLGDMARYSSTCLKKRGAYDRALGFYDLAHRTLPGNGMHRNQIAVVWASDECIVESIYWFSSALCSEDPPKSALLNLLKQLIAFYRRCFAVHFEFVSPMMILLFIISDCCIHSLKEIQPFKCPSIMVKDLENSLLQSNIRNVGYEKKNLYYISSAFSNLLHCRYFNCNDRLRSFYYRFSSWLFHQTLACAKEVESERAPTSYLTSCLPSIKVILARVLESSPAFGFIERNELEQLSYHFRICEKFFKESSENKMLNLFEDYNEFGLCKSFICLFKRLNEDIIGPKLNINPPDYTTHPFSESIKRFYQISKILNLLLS
B2: Telomere elongation protein est1 (Schizosaccharomyces pombe (strain ATCC 38366 / 972)), O74804 (parent)
chain: B1 partner
partner: B1 chain

Variants of: B1
Conditions: with est1_schpo est1, O74804

Row | Variant | effect of a mutation on the interaction
1 | T93E | disrupting interaction strength
2 | T93D | disrupting interaction strength
3 | T93A | disrupting interaction strength
4 | Q94A | disrupting interaction

Variants of: B1
Conditions: with est1_schpo est1, O74804
Remark: another data set of the same source

Row | Variant | effect of a mutation on the interaction
5 | T93D | disrupting interaction
6 | Q94A | decreasing interaction

Variants of: B2
Conditions: with ccq1_schpo ccq1, Q10432

Row | Variant | effect of a mutation on the interaction
7 | MSQQLSSNEICEEQGKLVKALCEAAQGGFKHDLYEKIIAIEIEVEKKLLNRLKSIQTNTFERPDIIWSCCHYKIIQHFASRFREIHPRHVVEKKKTKKVFFKFLKTCAIFYQTCISELISKFQLDSYRPFFCKWTSSATVSSTISNDEMSSIPEASYSRNHMEALECVYNCFIYLGDMARYSSTCLKKRGAYDRALGFYDLAHRTLPGNGMHRNQIAVVWASDECIVESIYWFSSALCSEDPPKSALLNLLKQLIAFYRRCFAVHFEFVSPMMILLFIISDCCIHSLKEIQPFKCPSIMVKDLENSLLQSNIRNVGYEKKNLYYISSAFSNLLHCRYFNCNDRLRSFYYRFSSWLFHQTLACAKEVESERAPTSYLTSCLPSIKVILARVLESSPAFGFIERNELEQLSYHFRICEKFFKESSENKMLNLFEDYNEFGLCKSFICLFKRLNEDIIGPKLNINPPDYTTHPFSESIKRFYQISKILNLLLS [R79A] | disrupting interaction
8 | MSQQLSSNEICEEQGKLVKALCEAAQGGFKHDLYEKIIAIEIEVEKKLLNRLKSIQTNTFERPDIIWSCCHYKIIQHFRSRFREIHPRHVVEKKKTKKVFFKFLKTCAIFYQTCISELISKFQLDSYRPFFCKWTSSATVSSTISNDEMSSIPEASYSRNHMEALECVYNCFIYLGDMAAYSSTCLKKRGAYDRALGFYDLAHRTLPGNGMHRNQIAVVWASDECIVESIYWFSSALCSEDPPKSALLNLLKQLIAFYRRCFAVHFEFVSPMMILLFIISDCCIHSLKEIQPFKCPSIMVKDLENSLLQSNIRNVGYEKKNLYYISSAFSNLLHCRYFNCNDRLRSFYYRFSSWLFHQTLACAKEVESERAPTSYLTSCLPSIKVILARVLESSPAFGFIERNELEQLSYHFRICEKFFKESSENKMLNLFEDYNEFGLCKSFICLFKRLNEDIIGPKLNINPPDYTTHPFSESIKRFYQISKILNLLLS [R180A] | disrupting interaction
9 | MSQQLSSNEICEEQGKLVKALCEAAQGGFKHDLYEKIIAIEIEVEKKLLNRLKSIQTNTFERPDIIWSCCHYKIIQHFASRFREIHPRHVVEKKKTKKVFFKFLKTCAIFYQTCISELISKFQLDSYRPFFCKWTSSATVSSTISNDEMSSIPEASYSRNHMEALECVYNCFIYLGDMAAYSSTCLKKRGAYDRALGFYDLAHRTLPGNGMHRNQIAVVWASDECIVESIYWFSSALCSEDPPKSALLNLLKQLIAFYRRCFAVHFEFVSPMMILLFIISDCCIHSLKEIQPFKCPSIMVKDLENSLLQSNIRNVGYEKKNLYYISSAFSNLLHCRYFNCNDRLRSFYYRFSSWLFHQTLACAKEVESERAPTSYLTSCLPSIKVILARVLESSPAFGFIERNELEQLSYHFRICEKFFKESSENKMLNLFEDYNEFGLCKSFICLFKRLNEDIIGPKLNINPPDYTTHPFSESIKRFYQISKILNLLLS [R79A;R180A] | disrupting interaction

Variants of: B2
Conditions: with ccq1_schpo ccq1, Q10432
Remark: another data set of the same source

Row | Variant | effect of a mutation on the interaction
10 | MSQQLSSNEICEEQGKLVKALCEAAQGGFKHDLYEKIIAIEIEVEKKLLNRLKSIQTNTFERPDIIWSCCHYKIIQHFASRFREIHPRHVVEKKKTKKVFFKFLKTCAIFYQTCISELISKFQLDSYRPFFCKWTSSATVSSTISNDEMSSIPEASYSRNHMEALECVYNCFIYLGDMARYSSTCLKKRGAYDRALGFYDLAHRTLPGNGMHRNQIAVVWASDECIVESIYWFSSALCSEDPPKSALLNLLKQLIAFYRRCFAVHFEFVSPMMILLFIISDCCIHSLKEIQPFKCPSIMVKDLENSLLQSNIRNVGYEKKNLYYISSAFSNLLHCRYFNCNDRLRSFYYRFSSWLFHQTLACAKEVESERAPTSYLTSCLPSIKVILARVLESSPAFGFIERNELEQLSYHFRICEKFFKESSENKMLNLFEDYNEFGLCKSFICLFKRLNEDIIGPKLNINPPDYTTHPFSESIKRFYQISKILNLLLS [R79A] | decreasing interaction
11 | MSQQLSSNEICEEQGKLVKALCEAAQGGFKHDLYEKIIAIEIEVEKKLLNRLKSIQTNTFERPDIIWSCCHYAIIQHFRSRFREIHPRHVVEKKKTKKVFFKFLKTCAIFYQTCISELISKFQLDSYRPFFCKWTSSATVSSTISNDEMSSIPEASYSRNHMEALECVYNCFIYLGDMARYSSTCLKKRGAYDRALGFYDLAHRTLPGNGMHRNQIAVVWASDECIVESIYWFSSALCSEDPPKSALLNLLKQLIAFYRRCFAVHFEFVSPMMILLFIISDCCIHSLKEIQPFKCPSIMVKDLENSLLQSNIRNVGYEKKNLYYISSAFSNLLHCRYFNCNDRLRSFYYRFSSWLFHQTLACAKEVESERAPTSYLTSCLPSIKVILARVLESSPAFGFIERNELEQLSYHFRICEKFFKESSENKMLNLFEDYNEFGLCKSFICLFKRLNEDIIGPKLNINPPDYTTHPFSESIKRFYQISKILNLLLS [K73A] | decreasing interaction
